Source: patent US20110039770A1, “INHIBITORS OF PROTEIN KINASE C ISOFORMS AND USES THEREOF” (PHARMAGAP INC., priority 2005, published 2011)

Molecular target: PKC delta (Homo sapiens, UniProt Q05655)
Assay: Kinase-Glo Luminescent Kinase Assay
Format: biochemical
Description: Compounds TIM 10, 11, 13, 14, 15, and 18-22 (see Table 28) were tested for their ability to inhibit the activity of PKC-alpha, beta 1, delta and epsilon isoforms the Kinase-Glo™ Luminescent Kinase Assay (Promega, Cat # V6712/3/4) following the manufacturer's instructions.

PKC delta, sequence (Q05655 whole entry): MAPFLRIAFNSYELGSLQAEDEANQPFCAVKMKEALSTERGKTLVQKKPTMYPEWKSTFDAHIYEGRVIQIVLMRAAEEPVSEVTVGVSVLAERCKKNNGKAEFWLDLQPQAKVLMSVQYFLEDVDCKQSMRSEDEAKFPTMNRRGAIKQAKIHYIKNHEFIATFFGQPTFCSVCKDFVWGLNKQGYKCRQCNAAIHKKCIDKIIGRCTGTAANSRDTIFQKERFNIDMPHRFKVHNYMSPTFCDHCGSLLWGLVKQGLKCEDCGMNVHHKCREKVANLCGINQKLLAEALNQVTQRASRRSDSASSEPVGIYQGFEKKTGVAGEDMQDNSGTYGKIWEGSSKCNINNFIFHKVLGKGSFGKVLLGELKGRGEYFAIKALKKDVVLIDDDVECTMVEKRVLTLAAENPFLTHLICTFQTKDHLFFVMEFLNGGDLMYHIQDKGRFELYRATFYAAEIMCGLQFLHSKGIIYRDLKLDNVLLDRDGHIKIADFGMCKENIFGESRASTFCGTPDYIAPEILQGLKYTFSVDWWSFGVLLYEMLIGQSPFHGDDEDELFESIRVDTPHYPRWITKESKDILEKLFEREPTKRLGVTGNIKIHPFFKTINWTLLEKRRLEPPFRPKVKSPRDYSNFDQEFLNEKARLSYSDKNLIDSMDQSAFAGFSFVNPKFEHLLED

Ac—FRRCFRL—(G)7—RRKKGGKDFVVKR—NH2 (Ac-FRRCFRLGGGGGGGRRKKGGKDFVVKR-NH2) [TIM 20, PRE 1 and PKI 4]
% Inhibition PKC-δ (5.0 μM): 46.0%
% Inhibition PKC-δ (30.0 μM): 45.4%
inhibition of PKC delta activity (in words) (Kinase-Glo): good specificity for PKC delta
